Laboratory results from patent US20190184028A1 (Janssen / Centocor, published 2019).
Substitutions are numbered along the chain they refer to. Names and notes keep the numbering of the source. Blank lines part the entries; values can stand above or below the binder they belong to.

Columns and labels:
human EpCAM [1] = biological target: T1, human EpCAM (human, UniProt P16422 24-314); assay: cell-based or functional assay
T1 sequence (looked up): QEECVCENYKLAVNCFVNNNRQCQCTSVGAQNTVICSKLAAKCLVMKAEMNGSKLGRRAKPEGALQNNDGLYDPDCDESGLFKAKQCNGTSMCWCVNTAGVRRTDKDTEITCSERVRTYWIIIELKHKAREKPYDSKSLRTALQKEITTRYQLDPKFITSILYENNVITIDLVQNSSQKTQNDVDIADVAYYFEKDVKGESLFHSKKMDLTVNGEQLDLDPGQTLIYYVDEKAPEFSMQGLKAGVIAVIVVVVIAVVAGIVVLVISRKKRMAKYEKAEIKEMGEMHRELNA

[2] = biological target: T2, epidermal growth factor receptor (EGFR) (human, UniProt P00533 25-1210); assay: flow cytometry on H292 cells
T2 construct: whole, on cells; The cell assays use human tumour lines; also called hEGFR
Experimental: To determine the activity of the recently created FN3 domain molecule-SPION, cell targeting assays were set-up in vitro. H292 cells were dissociated from a T-150 cell culture flask using Hank's Enzyme free dissociation buffer (Invitrogen—13150-016). The cells and dissociation buffer were incubated for 15 minutes in a cell incubator. The flask was gently tapped to dissociate any residually bound cells and the buffer and cells were transferred to a 15 mL conical tube. The cells were spun at 1,000 rcf for 2 minutes. The supernatant was gently removed with careful consideration paid to not disturbing the pelleted cells. The cell pellet left over was reconstituted in 1.5 mL of phenol-red free RPMI 1640 media with 10% FBS. It was determined that the suspension contained approximately […]. 100 μL of this suspension was added to each well of a 96-well plate. FN3 domain molecule-SPION sample concentrations are listed above. From these known concentrations, FN3 domain molecule-SPION was added to each well so that the final concentration of FN3 domain molecule-SPION with the cells was 100 μg/mL Fe. Samples were plated in triplicate and incubated for 30 minutes and then purified via 3× centrifugation at 1,000×rcf and resuspension in dPBS pH 7.2. Samples were suspended in a final volume of 300 μL and moved to a clear, flat bottom 96-well plate for analysis on the Guava HTS flow cytometer. A total of 8,000 cells were counted for each sample. Following flow, population samples were analyzed using FlowJo. Each sample was gated so that only live cells were assessed for fluorescence. Histograms were obtained wherein the black peak (the peak to the left side of the graph) is the autofluorescence obtained from unlabeled H292 cells. The blue peak (the peak to the right side of the graph) corresponds to the sample title above the histogram. 83v10, 83v12 and 83v15 are positively shifted compared to the tencon25 control or blank cells (FIGS. 1A-1D). […] All samples were normalized by subtracting the blank cell autofluorescence from the mean fluorescent intensities of each sample. […]

human EpCAM [3] = biological target: T1, human EpCAM; assay: cell-based or functional assay; remark: listed apart in the source
[4] = biological target: T2, epidermal growth factor receptor (EGFR); assay: table column 'Binding antigen'; no assay given
[5] = biological target: prostate specific membrane antigen (PSMA) (UniProt Q04609 1-750, limits assumed); assay: cell-based or functional assay
Sequence of prostate specific membrane antigen (PSMA) (Q04609 whole entry): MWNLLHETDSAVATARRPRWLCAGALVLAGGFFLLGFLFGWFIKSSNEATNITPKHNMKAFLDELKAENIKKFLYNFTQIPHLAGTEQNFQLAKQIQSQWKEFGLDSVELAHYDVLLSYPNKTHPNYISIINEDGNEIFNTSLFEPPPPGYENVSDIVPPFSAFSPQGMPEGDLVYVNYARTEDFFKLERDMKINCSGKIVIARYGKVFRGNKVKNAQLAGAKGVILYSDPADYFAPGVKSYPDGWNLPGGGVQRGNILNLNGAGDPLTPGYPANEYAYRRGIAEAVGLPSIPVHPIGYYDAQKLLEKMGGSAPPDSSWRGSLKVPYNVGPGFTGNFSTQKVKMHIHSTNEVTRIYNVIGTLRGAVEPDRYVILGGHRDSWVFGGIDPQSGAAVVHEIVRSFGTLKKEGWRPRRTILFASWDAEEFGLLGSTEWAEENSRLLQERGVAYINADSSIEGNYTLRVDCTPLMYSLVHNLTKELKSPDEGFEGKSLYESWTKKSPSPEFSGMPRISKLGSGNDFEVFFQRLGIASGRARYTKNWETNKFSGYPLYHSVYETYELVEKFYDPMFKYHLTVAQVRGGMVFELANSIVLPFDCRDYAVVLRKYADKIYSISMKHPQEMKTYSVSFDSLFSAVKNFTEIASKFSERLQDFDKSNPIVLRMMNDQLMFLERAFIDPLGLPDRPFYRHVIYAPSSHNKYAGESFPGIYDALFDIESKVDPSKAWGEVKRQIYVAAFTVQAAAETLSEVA

human EpCAM [6] = biological target: T1, human EpCAM; assay: cell-based or functional assay; remark: listed apart in the source

B1: Iso124R5AB_D6_cys vcMMAF conjugate (designed binder)
chain: MLPAPKNLVVSRVTEDSARLSWHNHRPQFDSFLIQYQESEKVGEAIVLTVPGSERSYDLTGLKPGTEYTVSIYGVAIAVPWNYQSNPLSAIFTTGGHHHHHHGGC
modifications: vc-MMAF on the C-terminal cysteine (cysteine-maleimide chemistry)
- Cytotoxicity Assays of CDCs, A431 cells IC50 (nm) (human EpCAM [1]): 59.2 nm
- Cytotoxicity Assays of CDCs, HT-29 cells IC50 (nm) (human EpCAM [1]): 38.3 nm

- binding result [2]: binds
B2: 83v10-SPION (designed binder)
chain: MLPAPKNLVVSEVTCDSARLSWDDPWAFYESFLIQYQESEKVGEAIVLTVPGSERSYDLTGLKPGTEYTVSIYGVHNVYKDTNMRGLPLSAIFTTGGHHHHHH
modifications: Cys 15 coupled to a superparamagnetic iron oxide nanoparticle (SPION)
notes: Cysteine variant of the EGFR-targeting FN3 domain P54AR4-83v2, many copies on a nanoparticle (50:1 molar ratio in the reaction); also called 83v10 = E15C

- binding result [2]: binds
B3: 83v12-SPION (designed binder)
chain: B2 chain with C15E, R19C
modifications: Cys 19 coupled to a superparamagnetic iron oxide nanoparticle (SPION)
notes: Cysteine variant of P54AR4-83v2 on a nanoparticle; also called 83v12 = R19C

B4: ISOP130R5CP7_G02srt vcMMAF conjugate (designed binder)
chain: MLPAPKNLVVSRVTEDSARLSWKHYRPGARFDSFLIQYQESEKVGEAIILTVPGSERSYDLTGLKPGTEYTVSIYGVVTHALPTAYTSNPLSAIFTTGGHHHHHHGGLPETGGH
modifications: vcMMAF conjugated via the sortase reaction at the C-terminal sortase tag (Gly3-vcMMAF)
- % viable COLO205 cells, 1 nM (human EpCAM [3]): 39%

B5: ISOP130R5CP6_A02srt vcMMAF conjugate (designed binder)
chain: B4 chain with I49V, T79N, H80N, T84R, A85W, T87I
modifications: vcMMAF conjugated via the sortase reaction at the C-terminal sortase tag (Gly3-vcMMAF)
- % viable COLO205 cells, 1 nM (human EpCAM [3]): 66%

B6: ISOP130R5CP6_F02srt vcMMAF conjugate (designed binder)
chain: B4 chain with K23D, H24Q, P27K, G28Y, R30G, I49V, T84Q, A85T, T87Q
modifications: vcMMAF conjugated via the sortase reaction at the C-terminal sortase tag (Gly3-vcMMAF)
- % viable COLO205 cells, 1 nM (human EpCAM [3]): 90%

B7: ISOP130R5CP7_F11srt vcMMAF conjugate (designed binder)
chain: B4 chain with I49V, V78I, T79W, H80G, T84N, A85S, T87S
modifications: vcMMAF conjugated via the sortase reaction at the C-terminal sortase tag (Gly3-vcMMAF)
- % viable COLO205 cells, 1 nM (human EpCAM [3]): 81%

- binding result [2]: binds
B8: 83v15-SPION (designed binder)
chain: MLPAPKNLVVSEVTEDSARLSWDDPWAFYESFLIQYQESEKVGEAIVLTVPGSERSYDLTGLKPGTEYTVSIYGVHNVYKDTNMRGLPLSAIFTTGGHHHHHHC
modifications: C-terminal Cys coupled to a superparamagnetic iron oxide nanoparticle (SPION)
notes: Cysteine variant of P54AR4-83v2 on a nanoparticle; also called 83v15 = C-terminal

- binding result [4]: binds
B9: EEB9 PEG4-MMAF conjugate (designed binder)
chain: MLPAPKNLVVSRVTEDSARLSWTAPDAAFDSFQIYYSELLSYGEAIVLTVPGSERSYDLTGLCPGTEYTVSINGVKGGTRSWSLSAIFTTAPAPAPAPAPLPAPKNLVVSRVTEDSARLSWTAPDAAFDSFQIYYSELLSYGEAIVLTVPGSERSYDLTGLCPGTEYTVSINGVKGGTRSWSLSAIFTTAPAPAPAPAPTIDEWLLKEAKEKAIEELKKAGITSDYYFDLINKAKTVEGVNALKDEILKA
modifications: Iodoacetyl-PEG4-MMAF on cysteines; 2 MMAF after conjugation
notes: Bivalent P155R8-G3 with ABDcon12

- binding result [4]: binds
B10: EEB10 PEG4-MMAF conjugate (designed binder)
chain: B9 chain with A93C, A192C
modifications: Iodoacetyl-PEG4-MMAF on cysteines; 4 MMAF after conjugation
notes: as for B9

- binding result [4]: binds
B11: EEB8 PEG4-MMAF conjugate (designed binder)
chain: B9 chain with C162K
modifications: Iodoacetyl-PEG4-MMAF on cysteine; 1 MMAF after conjugation

- binding result [4]: binds
B12: EEB11 PEG4-MMAF conjugate (designed binder)
chain: B9 chain with A93C
modifications: Iodoacetyl-PEG4-MMAF on cysteines; 3 MMAF after conjugation
notes: as for B9

B13: P234CR9_H01 vcMMAF conjugate (designed binder)
chain: LPAPKNLVVSRVTEDSARLSWEWWVIPGDFDSFLIQYQESEKVGEAIVLTVPGSERSYDLTGLKPGTEYTVSIYGVVNSGQWNDTSNPLSAIFTT
modifications: vc-MMAF conjugated through a sortase tag (Gly3-vc-MMAF, sortase A)
- LNCaP cells IC50 (nM), cytotoxicity (CellTiterGlo) [5]: 22.6 nM
- MDA-PCA-2B cells IC50 (nM), cytotoxicity (CellTiterGlo) [5]: 151 nM
- VCAP cells IC50 (nM), cytotoxicity (CellTiterGlo) [5]: 401 nM

B14: ISOP130R5CP6_F01srt vcMMAF conjugate (designed binder)
chain: MLPAPKNLVVSRVTEDSARLSWKHYRPGARFDSFLIQYQESEKVGEAIVLTVPGSERSYDLTGLKPGTEYTVSIYGVVTALPSNYISNPLSAIFTTGGHHHHHHGGLPETGGH
modifications: vcMMAF conjugated via the sortase reaction at the C-terminal sortase tag (Gly3-vcMMAF)
- % viable COLO205 cells, 1 nM (human EpCAM [3]): 43%

B15: ISOP130R5CP6_E08srt vcMMAF conjugate (designed binder)
chain: B14 chain with T79A, S83N, I86A
modifications: vcMMAF conjugated via the sortase reaction at the C-terminal sortase tag (Gly3-vcMMAF)
- % viable COLO205 cells, 1 nM (human EpCAM [3]): 66%

B16: ISOP130R5CP6_A06srt vcMMAF conjugate (designed binder)
chain: B14 chain with N84Y, I86S
modifications: vcMMAF conjugated via the sortase reaction at the C-terminal sortase tag (Gly3-vcMMAF)
- % viable COLO205 cells, 1 nM (human EpCAM [3]): 67%
- IC50 (nM), cytotoxicity on COLO205 cells (CellTiterGlo) (human EpCAM [6]): 1.6 nM

B17: ISOP130R5CP6_A06_cys vcMMAF conjugate (designed binder)
chain: MLPAPKNLVVSRVTEDSARLSWKHYRPGARFDSFLIQYQESEKVGEAIVLTVPGSERSYDLTGLKPGTEYTVSIYGVVTALPSYYSSNPLSAIFTTGGHHHHHHGGC
modifications: vc-MMAF on the C-terminal cysteine (cysteine-maleimide chemistry)
- Cytotoxicity Assays of CDCs, A431 cells IC50 (nm) (human EpCAM [1]): 9.9 nm
- Cytotoxicity Assays of CDCs, HT-29 cells IC50 (nm) (human EpCAM [1]): 6.7 nm

B18: ISOP130R5CP7_G04_cys vcMMAF conjugate (designed binder)
chain: B17 chain with V78A, T79A, A80H, L81A, P82I, S83P, Y84R, S86A
modifications: vc-MMAF on the C-terminal cysteine (cysteine-maleimide chemistry)
- Cytotoxicity Assays of CDCs, A431 cells IC50 (nm) (human EpCAM [1]): 48.1 nm
- Cytotoxicity Assays of CDCs, HT-29 cells IC50 (nm) (human EpCAM [1]): 37.7 nm
